Measured values taken from PMC2712960.

What was measured:
[1] = biological target: b6f complex (monomer of 140 kD) (C. reinhardtii (endogenous)) (UniProt P23577); assay: native gel or EMSA
[2] = biological target: b6f complex with cytochrome b6 C35V (C. reinhardtii (endogenous)) (UniProt P23577); assay: native gel or EMSA

| Substance | stoichiometry N [1] | stoichiometry N [2] |
| --- | --- | --- |
| b6f complex (monomer of 140 kD) (from UniProt P23577 32-317; Q00471 1-215; P23230 1-160) | 2 | – |
| b6f complex with cytochrome b6 C35V (from UniProt P23577 32-317; Q00471 1-215; P23230 1-160) | – | 2 |
